Assay: soluble fraction after stress (log2 fold change); higher = more stays soluble; pooled small domains, quantitative proteomics
Settings: stress: 50 degC
In short: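 Pooled custom libraries of small protein domains were measured in a high-throughput format, with quantitative proteomics as the read-out. Each library was stressed at 50°C. Aggregation propensity is given as the base-two logarithm of the fold change in how much of each protein stays soluble after the stress. Higher values mean a larger share of the protein remains in solution.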

Row | Sequence | soluble fraction (log2)
1 | HMQNREQNILDGKSILDKELKRVGLLNQSAAIMAQEMKFNSQDDLFAALGSGATRIGQIINHLQKQS | -0.00642
2 | HMQNSMTTTPDVVGKTGTFAEQMLKAANLNVQFAGDSSGKVVAQDVEAGTSAAYGTIITLTMDS | 0.14
3 | HMQNVKIKAEVKGEVISPGVYELDEESRIQDLIDASGGFSDKAYYDNINLSMKLKDEMVLVVYDKDKI | -0.163
4 | HMQPADYSDLYAAAKSAGEADMRAAFALTDKQERTAAVNAARETIKAALSEEQLADANLGSALKKLEAGV | -0.337
5 | HMQPASPELNNQEKKVLQALPENEVIHIDELSDKIQIPVGELLTVLLSLEMKETVIQEPGKFFRRR | -1.28
6 | HMQPDFLDAKASLALLGVRPQTLYAYVSRGAIRSVPQPGTKAHLYSRSDIERVMARAAARAG | -1.12
7 | HMQPDYRVLYSNFSDKDGGAIVAALEKMNVPYKFSEGGSAILVPAGQVHQARLKLAADGLPK | 0.0409
8 | HMQPLGHDLTERELDVLALMVTGMNNSEIADKLVVSRSTIKYHVSNILSKLQATSRTEAVAYALQQNLVH | -0.469
9 | HMQPQIDFEIDVEVRASSLRIVAAPNSDVLVATVGRGEHVVQLTYPKDGWVMIRTADDRVGFVPESLLL | -0.255
10 | HMQPQYSVLFSNIEEKDGGSIITLLQQGNVPYKVENGGTTILVPANRANELRLTLAAQGLPK | -0.0124
11 | HMQPVLSDAEVNDLKNIAGGERGYNQLMDWAGNNLTAQDAKSYDDVLATGNKAAISFAIKALMGQYEDAN | 0.047
12 | HMQQEAVNLVQSRGQQAIEPVHIMQGVMKVGENVTNFIFQKLGMNGQQVALVVDKQIDSLPKVSGGEPYL | 0.0273
13 | HMQQEAVSGKLLQLDLAKKEGRLSTDLGREVLFHIPKPELFVHLSVGQRIIIKLDAGQEAVGV | -0.0409
14 | HMQQELDAFKLLITVSGVGPKAAMAVLSVLPPDRLSIAVSSGDVKSIQSAQGVGKKTAERIVLELKDKM | -0.814
15 | HMQQIEIEEPITVKNLSAVAGLKASEIIAKLMKLGVMSTINQVMERQHAEEIAGEYGFELVVK | 0.096
16 | HMQQISDPQVLRPMAEEVLHQSQKVVQDYKGGNKNAFHALVGQMMKKTQGKGNPQVIGQVLSELLDE | 0.476
17 | HMQQKNWIVRDGDGKIYGPFTTEQVLVQIDRGYFVGGEEVALYPGGRWIAISGAPEFYDRLLDALAMEG | -0.402
18 | HMQQQLLHIVFGGELKDVTGIEFEDLSKMDFVGAFSNYKDAYDAWKSAAQRTVDHAEMRYFILHAHKLL | -5.48
19 | HMQQRTVEHVDTAVEALALSIGERAGVDLPYMAHLTGKTQEDLIEDLTGVIFPVPGTEPLRYVTADDYLS | 0.028
20 | HMQQSVSSLVRRYMLQTIPGINFSLKSTALALNMSDRTLQRKLLSENTSYQIILDDVRKELAIKYLKE | -3.19
21 | HMQQVIQSGQKVQLMATDGSFQVSAEGVALKNGSVGEVIGVRMPSGRVISGVVSASGAVEVR | 0.146
22 | HMQQVLGDVNEDDKVDFLDAIVVLRHDAEIIQLTDNQMKAAEVNKDGKVDFLDAIMILRYDAEIIGS | -0.0952
23 | HMQRDDMQIDRLIQIVFLLLSRNNLTAKQLAEELGVSTRTIYRDINILSVAGIPITSQKGYGGGLSLLQG | -0.62
24 | HMQRDELRYDQFLTALQNKEFTQLNVRFDDYTYLVTGTFQSGRPFSTRGPVSEEFIRLIESSGVQVTWLPM | -0.577
25 | HMQRDERYVYHTVLAGETIYSLSRKFNVTMDELLESNPALRSGVLTTGSEIRVLKAQMAQNFD | -0.376

Row | Sequence | soluble fraction (log2)
26 | HMQRQGTVATQQTPLNIRSQPSLSAQVIGQAPKGATVAILGESGDWYQIRYQNITGYSSKQYI | 0.145
27 | HMQRSVEDVFVQLRNGMDTYDMTQIEDALRILHGMELSTAQRDLLDKVQEAYNDLEYETGAALLAGFERIK | 0.0317
28 | HMQRYFINEPVPEDQRLVLPKDIAHHLVDVLRAEQNDELEVALNDQKVYLARLISLNPATVELQSDLG | 0.266
29 | HMQRYFLEEAYQPSEKFELSAEAFHHIVHVMRMKPKDRVYLAFSDQQVIIAEITEITEEKVYLTEIEKEE | -0.0978
30 | HMQRYYDVLGLQKGVSPEELKKTYRELSKKYHPDAHHNSPLRDLAEAKFKEINEAYEKIKEFLDNNF | 0.15
31 | HMQSAKLSYSDFMQKVNAGDVVSVKIQGPKISGVTTGGGKFMTYAPEDPTLVSTLMQKKVEVMAEP | 0.178
32 | HMQSAMALTKDLIEQQGKYYHRGQPFTGVGFAKNKKGKFVTEEPFKNGLLHGKRVNYDHNGHVLAREK | 0.264
33 | HMQSEESTHIGERMLNQALRAMHVEPSAVKEKQWEKLIRDYSVKNKQDILTDIGLGKRQSVMVAHQLLAI | 0.0574
34 | HMQSEISRIGRILKERRLQLGYTQEYAAEKAGISYSYYTKIERGQQLPSLEVAMVLSKTFSLSMDRWL | -4.77
35 | HMQSFIEELLPVVDNFERSLAVVDPSDEIKNFLKGYEMIYNQLMEVLKSQGVEVIKTEGEEFDPNFHQA | 0.0366
36 | HMQSHIVPDVKSQHIAQAKALLESKQMKAVVIDSNFVKGLPAGIVLDQTPIGGARVKENRTIYLTINTL | -0.557
37 | HMQSMEIDENEIPSIDKLSEYIEYFKRIYNALFDDKQLAITNIDVLERHFANNFNTLRFKMDE | -0.0595
38 | HMQSNDAGELEAVVKGIIDANPKVVADYLAGNQKVVSFFVGQAMKATKGKANPKMVSEILGKLL | 0.00348
39 | HMQSQIAQLYNPLLGYVKKRINSREDAEDLTQDIFLKLSKSNKDGVDNLKSWLYTIAKNTITDYYRKKKII | 0.15
40 | HMQSREISYSDFVASVERGEVATVILDGENIRFKGGDNVEYVTVRPADTNVTDLLIENQVVVRAEK | 0.155
41 | HMQSTVSTHQKTLALDTAQSGIPVFPVSSTHKRPLTDHGYKDATADADAVRKIWQQFPSAFV | 0.0922
42 | HMQSVKTQPLRDWLLAHFDKPYPDDEDKVRLAEASGMTRAQVGNWFINARVRTWRPMVLDLGEEIERESV | -0.649
43 | HMQTEFVISSGEQPKRLDVFLLQREPYLSRAALQRMIAAGWVRVNNHLAKSSQRIKAGDVIVFD | -1.41
44 | HMQTFGTMIAALRKEQGMTQLELAEKMGVTDKAVSKWERDLSFPDVNSLPKLAEIFHVSVDEL | -0.229
45 | HMQTLGADLRALRKARGLTLTDMAETLGRSVGWLSQVERDLSEPSITDLRHMARTLGVSVSMLFS | -1.41
46 | HMQTLQNNLKQIRSRVGLTQGELASRAGISRQAYSTLESGNANPSTEVSLRLAEALNERIESLFFLANQ | -0.275
47 | HMQTSETVYTTDKVNVRAGADTSSDKLGSVEKGTSLTRTGTDGDWSIIDYNGTTGYIKSEYLSATAPE | 0.133
48 | HMQTTKTGTITASSLYVRSGASTSHKVLGTVSKGKTVQIKDTQDGWHKISYNGDHGWVSGKYVSTT | ≥ 0.62
49 | HMQTTVHLSPEEMVIMNALKQESPIDLPILRAQVEMSNKLWDTSMKNLSKLGQLKVEKIGEQVSVSLI | -0.257
50 | HMQVAPDLMQRLTSQGHVDEKLSDALVHARQITNFEGRRRQMQFIGKLMRKLSEESIEAVKDALNEQRM | -0.264

Row | Sequence | soluble fraction (log2)
51 | HMQVDENNINKRIDKYLSENTEYSRSTIQKMIDNGNITVNSKPTKSSYKLELNDIITIDNNFKE | 0.369
52 | HMQVEYTRGELIQDLEGGKIVYAGISPSRETPTGEVNFILDSGLTRTLYVTDVSEIEQLLISYDIDPEVKK | -0.0036
53 | HMQVFDSNEIDEVVKKVIENNPQAVADFKKGKSNALQFLAGQVMRETKGRFNPNVVQERIRLLLT | 0.458
54 | HMQVLLTRREKEILKLIAEGLTSAEIGKRLFISTTTVDTHRKHLLEKLKAGNTAILIKTAVQLDLI | -1.26
55 | HMQVPWYQRLKEKRLEYGVSQNKLATHIGISRQYMSEIETGKVTPSDSLQATLFDILEQFNPDA | -0.363
56 | HMQVRVERSRDKVVISGVNYYIHPVRKGETVYSIARAYGITTQDLVRENPSAAEGLKEGQSIRIPERLVD | 0.0927
57 | HMQVSDEGPIKAILQEVLDKSPTQLADYASGKVKLRQYFFGEAMKALKGKANPQVINKLLDEMLPPVAA | 0.079
58 | HMQVSDVTELRTILEKVITENESVATEFKEGKDAAMNFLVGQGMKATRGAADPALLKEIITGIL | 0.0889
59 | HMQVSITGYLGGEKIGLFDDAKFKALAAKQGIAIDYRKAGSPAMMDADRKGMDYLFPSSRAAVEYGNAKGV | -0.009
60 | HMQVTDTGTIEGEIDKVLAANPDRVTEYHDGKEKILGWFVGQVMQTTKGKANPQMVNQLFLEKLK | 0.142
61 | HMQVTPQVLRLLDVLGDKELSLRQIAEALGLSDRKNIMRNYVVPALDSGRVVRTVPNKPNSRFQKYRK | -0.404
62 | HMQYDALVLNLLQEKNLTSESLKDAQRAFAKSHNLSTLPSKSQILQAYFQLLEQGKIEKNPDFELLL | -0.108
63 | HMQYFDIETEIQKFIKSENNLSDFDKETLQSFLYQLSKGSPEENTAKKVVDILNKFLPLTTAIINMIKALT | 0.168
64 | HMQYYITKIANYDQVSPNLLVRTAEGQYMVKTNADILDTDVTKLTEEEIRKDWGYLFENGFSELV | -0.814
65 | HMRAAEPTTDAQRDRRRRIVLTAMTMLQERGYDEIQMRDVAQQAGVALGTLYRYFPSKEQLFAHVLVE | -0.599
66 | HMRAAFEHLTIGQTVSGLVKSQARGVSLVEIEGQTVAMRLPQPVAVGDTLRLRFAGHMPQPVFLLDT | -0.132
67 | HMRADYVGGLDPAGDNFLALRTGPGSGYAMILPMGPGTFVTVLRRNGKWLLVELEDGTRGWAYGSYILG | -2.84
68 | HMRAGALTTLTERERNVFDLVVTGHSNPEIARQLSIADVTVKTHVGHILSKLGVRDRVHLVIWAHRQGLAD | -2.61
69 | HMRAMWENLFFQYKEGFLPEEYYKQGIATGIRLAGPKFVEMNIPMQKEFEDEVHRLLAEHEKSVK | -0.748
70 | HMRASVTYVVQVNGKLRGKLEVAPDIDPEELKKLALEVENVKHSLQGWTVKKVIVIPGKMVSIAAGK | 0.0764
71 | HMRAVEGKRLKRLLRTNLIAIERDQILQYPLRKRPLAIVTRAVRATNPDAVIVNDAGDDVFARALDVLLAS | -1.34
72 | HMRDAKSQLQEALQKSGRLPEYELVSVEGPPHAPVFTYRVRIDGAVVGEGQGASKQAAQQAAAQSALKSG | 0.145
73 | HMRDDAIQQGREIVERELHRLDLAYTTLTDVLAKLEYEKLDDLYAAVGFGIRSPHSVAAAALQVERDKA | -0.569
74 | HMRDGHEQLQGVLSAIKFHQANFLIGVLDDGTTVKGNMLSPQVGLEYTFRGRRERHPRWGEQFAFMDYRV | -2.76
75 | HMRDIGKNIRYYREKKGYSQEQLAQLLFVTRQTVSNYETSRSRPDVETLVKLAGLLDIDVTDLIYGPR | -0.651

— the domain aggregation screens of Martell et al. (2025)
